Experimental data published in IntAct's records for PubMed 17576925.

B1: Long-distance movement protein (Groundnut rosette virus (strain MC1)), Q67684 (parent)
chain: MDTTPASRGQWPVGIMSSVINVFASGKSCNSGGAPRSSVRRGHRAGAARDKSRGFDAPPRRPKGGVHPATTSKDPNKDIRGPPAPTPHKKYRGPAIPGEGRSGVHTTRPRRRAGRSGGMDPRQLVAQPQQRWAKTEIPTERRAEIDGLLPSLLNTLDGQIQGDAALLRYCVGAIKRELRRRWESVQPAHHVAASSGKPSPQLFNEAAQNAEDLSGDGKGCAGQSVQQEVLHSGSGVPPVCADCGKPAANKW
partner: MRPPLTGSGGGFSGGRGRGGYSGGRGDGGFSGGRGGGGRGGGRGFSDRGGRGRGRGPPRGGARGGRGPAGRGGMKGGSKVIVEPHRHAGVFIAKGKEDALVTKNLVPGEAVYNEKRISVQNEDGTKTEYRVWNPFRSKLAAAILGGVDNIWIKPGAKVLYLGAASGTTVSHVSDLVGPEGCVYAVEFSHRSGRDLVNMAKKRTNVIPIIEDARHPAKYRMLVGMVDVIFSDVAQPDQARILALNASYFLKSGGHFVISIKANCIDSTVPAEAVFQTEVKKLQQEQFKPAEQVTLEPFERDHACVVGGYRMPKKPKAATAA

Variants of: B1
Details: with fbrl2_arath FIB2, Q94AH9
In the case of MDTTPASRGQWPVGIMSSVINVFASGKSCNSGGAPRSSVRRGHRAGAARDKSRGFDAPPRRPKGGVHPATTSKDPNKDIRGPPAPTPHKKYRGPAIPGEGRSGVHTTRPRRRAGRSGGMDPRQLVAQPQQRWAKTEIPTERRAEIDGLAPSLLNTLDGQIQGDAALLRYCVGAIKRELRRRWESVQPAHHVAASSGKPSPQLFNEAAQNAEDLSGDGKGCAGQSVQQEVLHSGSGVPPVCADCGKPAANKW [L149A], the “effect of a mutation on the interaction” value is reported as “disrupting interaction strength”.
